# T1: TAF3 (human (endogenous in HeLa), UniProt Q5VWG9 1-929)
# T1 sequence (looked up): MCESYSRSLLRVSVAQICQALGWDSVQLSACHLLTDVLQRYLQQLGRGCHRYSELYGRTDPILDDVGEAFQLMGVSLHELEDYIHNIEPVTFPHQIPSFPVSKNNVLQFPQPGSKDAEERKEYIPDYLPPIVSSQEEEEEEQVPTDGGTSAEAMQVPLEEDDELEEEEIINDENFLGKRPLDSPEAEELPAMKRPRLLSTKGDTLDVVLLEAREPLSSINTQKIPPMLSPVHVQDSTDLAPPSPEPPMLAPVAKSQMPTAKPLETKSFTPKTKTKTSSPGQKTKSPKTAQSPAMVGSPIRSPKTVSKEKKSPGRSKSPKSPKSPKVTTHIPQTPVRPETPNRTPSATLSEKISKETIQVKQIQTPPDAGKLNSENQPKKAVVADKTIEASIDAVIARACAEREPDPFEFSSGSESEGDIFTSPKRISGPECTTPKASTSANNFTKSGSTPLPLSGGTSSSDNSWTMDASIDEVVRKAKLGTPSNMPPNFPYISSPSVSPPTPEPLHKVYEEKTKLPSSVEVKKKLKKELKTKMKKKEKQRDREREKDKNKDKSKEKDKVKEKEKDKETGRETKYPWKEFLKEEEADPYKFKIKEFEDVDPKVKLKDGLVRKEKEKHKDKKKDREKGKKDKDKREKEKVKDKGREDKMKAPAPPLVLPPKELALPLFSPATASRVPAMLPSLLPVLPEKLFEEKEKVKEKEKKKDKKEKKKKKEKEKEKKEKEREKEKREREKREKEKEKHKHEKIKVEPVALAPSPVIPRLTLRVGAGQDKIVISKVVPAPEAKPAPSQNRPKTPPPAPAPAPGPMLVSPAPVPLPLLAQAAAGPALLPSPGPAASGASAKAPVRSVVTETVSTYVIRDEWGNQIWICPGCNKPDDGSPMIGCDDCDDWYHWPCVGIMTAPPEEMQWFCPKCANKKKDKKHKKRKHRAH
# T2: TAF8 (human (endogenous in HeLa), UniProt Q7Z7C8 1-310)
# T2 sequence (looked up): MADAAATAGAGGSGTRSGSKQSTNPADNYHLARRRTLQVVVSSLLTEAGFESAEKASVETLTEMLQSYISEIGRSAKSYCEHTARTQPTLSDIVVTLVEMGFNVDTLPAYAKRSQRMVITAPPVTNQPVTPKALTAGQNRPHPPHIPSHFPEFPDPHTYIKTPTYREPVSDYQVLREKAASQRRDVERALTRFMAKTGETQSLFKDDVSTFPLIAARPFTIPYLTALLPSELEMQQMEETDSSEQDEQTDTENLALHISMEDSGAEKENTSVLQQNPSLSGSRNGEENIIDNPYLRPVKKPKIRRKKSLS
# Legend:
# Assay in all cases: cryo-EM structure
# TAF3 = target: T1, TAF3
# TAF8 = target: T2, TAF8
# TAF11 = TAF11 (human (endogenous in HeLa), UniProt Q15544 1-211)
# Chain of TAF11 (Q15544 whole entry): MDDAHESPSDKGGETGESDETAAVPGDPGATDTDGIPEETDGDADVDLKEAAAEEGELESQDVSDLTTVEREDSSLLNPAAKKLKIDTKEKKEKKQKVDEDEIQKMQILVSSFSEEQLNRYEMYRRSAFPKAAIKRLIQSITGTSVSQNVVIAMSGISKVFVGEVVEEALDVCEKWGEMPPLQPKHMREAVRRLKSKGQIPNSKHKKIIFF
binding result (TAF3),binding result (TAF8),binding result (TAF11),Binder
binds,binds,–,TAF10 (natural protein) not shown
–,–,binds,"TAF13 (natural protein, human (endogenous in HeLa), UniProt Q15543 1-124, looked up) MADEEEDPTFEEENEEIGGGAEGGQGKRKRLFSKELRCMMYGFGDDQNPYTESVDILEDLVIEFITEMTHKAMSIGRQGRVQVEDIVFLIRKDPRKFARVKDLLTMNEELKRARKAFDEANYGS"
